Results on four molecules are retold here after US20210347852A1 (Regeneron, published 2021).

A word on the Kd: it is the concentration at which binding is half-saturated. The low end stands for a tighter complex, the high end for a looser complex. For orientation: koff means the first-order rate constant of dissociation. Low readings indicate a long-lived complex, high ones a short-lived complex. Broadly, the kon is a measure of how fast the partners come together. A word on the t½: it is the time in which the quantity being followed falls by half. Low readings indicate fast loss, high ones slow loss.

To fix the notation:
B4: Human VEGF121 (R&D SYSTEMS Cat #4644-VS) (ligand, UniProt P15692-9 27-147, looked up)
chain: APMAEGGGQNHHEVVKFMDVYQRSYCHPIETLVDIFQEYPDEIEYIFKPSCVPLMRCGGCCNDEGLECVPTEESNITMQIMRIKPHQGQHIGEMSFLQHNKCECRPKKDRARQEKCDKPRR

In experiment [1] the target is T1, Human VEGF165 (REGN110) (human, UniProt P15692-4 27-191). As to the kind of experiment: cell-based or functional assay.
For experiment [2], the target named is B4. The experiment in a line: cell-based or functional assay.
Experiment [3] concerns the target B4. As to the kind of experiment: cell-based or functional assay. The source holds these as a separate data set.
In experiment [4] the target is T1, Human VEGF165 (REGN110). The experiment in a line: SPR (Biacore 3000), 25C, trap captured by REGN18, hVEGF165 injected. The protocol:
Equilibrium dissociation constants (KD values) for human VEGF₁₆₅ binding to various purified VEGF mini-trap constructs were determined using a real-time surface plasmon resonance biosensor using a Biacore 3000 instrument. All binding studies were performed in 10 mM HEPES, 150 mM NaCl, 3 mM EDTA, and 0.05% v/v Surfactant Tween-20; pH 7.4 (HBS-ET) running buffer at 25° C. The Biacore sensor surface was first derivatized by amine coupling with a monoclonal mouse anti-VEGFR1 antibody (REGN18) to capture VEGF mini-trap constructs. Binding studies were performed on the following human VEGF reagents: human VEGF₁₆₅. […] Dissociation of bound VEGF₁₆₅ reagent from VEGF mini-trap constructs was monitored for 60 minutes in HBS-ET running buffer. Kinetic association (ka) and dissociation (kd) rate constants were determined by fitting the real-time sensorgrams to a 1:1 binding model using Scrubber 2.0c curve fitting software. Binding dissociation equilibrium constants (KD) and dissociative half-lives (t1/2) were calculated from the kinetic rate constants as: […]
For orientation: SPR reads the build-up and loss of mass on a sensor chip optically.

In experiment [5] the target is B4. The experiment in a line: cell-based or functional assay. This is another data set of the same source.
The target in experiment [6] is T2, VEGFR1 chimeric receptors Flt1(1-7)-IL18Rα / Flt1(1-7)-IL18Rβ on HEK293/D9 reporter cells (UniProt P17948 27-758; Q13478 351-541; P17948 27-758; O95256 378-599, limits assumed). The experiment in a line: cell-based or functional assay.
T2 sequence (P17948 other isoform, or with tags, fused parts or gaps mutant limits assumed, chain 1 of 2): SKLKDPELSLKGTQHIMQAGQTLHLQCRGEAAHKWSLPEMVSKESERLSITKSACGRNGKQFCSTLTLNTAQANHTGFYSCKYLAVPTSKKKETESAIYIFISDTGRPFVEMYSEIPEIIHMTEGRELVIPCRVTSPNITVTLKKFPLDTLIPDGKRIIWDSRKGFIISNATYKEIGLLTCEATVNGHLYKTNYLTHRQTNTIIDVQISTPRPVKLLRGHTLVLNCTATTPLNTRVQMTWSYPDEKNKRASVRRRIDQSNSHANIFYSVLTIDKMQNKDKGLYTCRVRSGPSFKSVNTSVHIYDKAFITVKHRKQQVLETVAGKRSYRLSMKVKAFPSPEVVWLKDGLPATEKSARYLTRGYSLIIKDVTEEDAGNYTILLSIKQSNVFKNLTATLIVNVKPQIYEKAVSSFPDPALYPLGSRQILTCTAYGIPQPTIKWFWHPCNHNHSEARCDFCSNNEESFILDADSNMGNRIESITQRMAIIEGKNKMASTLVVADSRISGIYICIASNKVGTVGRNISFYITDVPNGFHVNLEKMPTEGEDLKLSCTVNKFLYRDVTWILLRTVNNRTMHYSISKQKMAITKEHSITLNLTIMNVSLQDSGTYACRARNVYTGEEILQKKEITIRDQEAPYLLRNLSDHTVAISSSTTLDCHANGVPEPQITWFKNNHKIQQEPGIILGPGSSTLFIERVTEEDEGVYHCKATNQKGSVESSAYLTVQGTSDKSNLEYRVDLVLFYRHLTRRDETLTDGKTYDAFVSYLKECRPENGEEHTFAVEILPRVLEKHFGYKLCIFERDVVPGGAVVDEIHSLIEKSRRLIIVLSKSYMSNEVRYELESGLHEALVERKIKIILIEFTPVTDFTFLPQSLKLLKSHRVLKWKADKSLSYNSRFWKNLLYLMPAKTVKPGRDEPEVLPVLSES
T2 sequence (P17948 other isoform, or with tags, fused parts or gaps mutant limits assumed, chain 2 of 2): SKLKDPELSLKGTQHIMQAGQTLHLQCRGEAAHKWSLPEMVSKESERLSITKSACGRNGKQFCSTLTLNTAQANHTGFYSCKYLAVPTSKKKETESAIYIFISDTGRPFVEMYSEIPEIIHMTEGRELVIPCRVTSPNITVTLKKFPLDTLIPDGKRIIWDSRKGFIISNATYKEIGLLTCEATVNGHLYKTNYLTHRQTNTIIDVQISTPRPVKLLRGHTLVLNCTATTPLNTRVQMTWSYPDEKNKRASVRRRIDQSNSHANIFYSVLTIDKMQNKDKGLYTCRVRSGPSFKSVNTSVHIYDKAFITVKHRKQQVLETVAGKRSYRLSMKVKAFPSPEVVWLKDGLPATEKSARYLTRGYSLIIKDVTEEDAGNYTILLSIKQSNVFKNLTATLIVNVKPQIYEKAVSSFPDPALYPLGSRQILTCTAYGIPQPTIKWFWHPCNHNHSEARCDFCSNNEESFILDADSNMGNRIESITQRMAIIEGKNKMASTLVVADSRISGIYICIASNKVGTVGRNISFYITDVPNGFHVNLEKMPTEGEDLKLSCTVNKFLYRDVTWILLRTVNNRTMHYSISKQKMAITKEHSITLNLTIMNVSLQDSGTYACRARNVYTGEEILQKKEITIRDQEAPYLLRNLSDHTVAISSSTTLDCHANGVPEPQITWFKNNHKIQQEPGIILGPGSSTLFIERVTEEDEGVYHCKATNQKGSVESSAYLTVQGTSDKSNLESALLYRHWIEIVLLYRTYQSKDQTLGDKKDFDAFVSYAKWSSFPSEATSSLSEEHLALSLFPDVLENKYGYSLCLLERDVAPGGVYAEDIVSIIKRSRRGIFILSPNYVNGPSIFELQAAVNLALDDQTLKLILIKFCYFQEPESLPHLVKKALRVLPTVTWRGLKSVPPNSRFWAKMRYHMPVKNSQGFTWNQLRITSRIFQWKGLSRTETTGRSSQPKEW
The target in experiment [7] is T2, VEGFR1 chimeric receptors …. The experiment in a line: cell-based or functional assay. The source holds these as a separate data set.

B1: REGN7483, VEGF mini-trap hIgG1 Fc (other)
chain: SDTGRPFVEMYSEIPEIIHMTEGRELVIPCRVTSPNITVTLKKFPLDTLIPDGKRIIWDSRKGFIISNATYKEIGLLTCEATVNGHLYKTNYLTHRQTNTIIDVVLSPSHGIELSVGEKLVLNCTARTELNVGIDFNWEYPSSKHQHKKLVNRDLKTQSGSEMKKFLSTLTIDGVTRSDQGLYTCAASSGLMTKKNSTFVRVHEKDKTHTCPPCPAPELLG
notes: Enzymatically cleaved from aflibercept; also called REGN7483F; VEGF mini-trap derived from REGN3
For B1, in the experiment with Human VEGF165 (REGN110) [1], the “IC50, Inhibition of 20 pM VEGF165, VEGFR1 assay (luciferase)” value was 3.36e-11 M. Besides, the “IC50, Inhibition of 20 pM VEGF121, VEGFR1 assay (luciferase)” value (“IC50, Inhibition of 20 pM VEGF121” below) in experiment [2] was 2.09e-11 M. In experiment [3], the “IC50 (read off the curve); NFkB-luciferase reporter (RLU), 293/D9/VEGFR1 cells, VEGF121 constant 40 pM [A]” value was approximately 2e-11 M. Besides, in the experiment with Human VEGF165 (REGN110) [4], the “2.5 nM hVEGF165 Bound (RU)” value is 9.37 RU, binding was put at a Kd of 1.9 pM, the koff was 1.95e-05 s⁻¹ and the kon is 1.01e+07 M⁻¹ s⁻¹. The “t½” value with Human VEGF165 (REGN110) [4] amounted to 9.85 h.

B2: REGN10117, VEGF Trap hIgG2 Fc w/4 Cys (Fc fusion)
chain: SDTGRPFVEMYSEIPEIIHMTEGRELVIPCRVTSPNITVTLKKFPLDTLIPDGKRIIWDSRKGFIISNATYKEIGLLTCEATVNGHLYKTNYLTHRQTNTIIDVVLSPSHGIELSVGEKLVLNCTARTELNVGIDFNWEYPSSKHQHKKLVNRDLKTQSGSEMKKFLSTLTIDGVTRSDQGLYTCAASSGLMTKKNSTFVRVHEKERKCCVECPPCPAPPVAGPSVFLFPPKPKDTLMISRTPEVTCVVVDVSHEDPEVQFNWYVDGVEVHNAKTKPREEQFNSTFRVVSVLTVVHQDWLNGKEYKCKVSNKGLPAPIEKTISKTKGQPREPQVYTLPPSREEMTKNQVSLTCLVKGFYPSDIAVEWESNGQPENNYKTTPPMLDSDGSFFLYSKLTVDKSRWQQGNVFSCSVMHEALHNHYTQKSLSLSPGK
Regarding B2, the “IC50, Inhibition of 20 pM VEGF121” value in experiment [2] is 2.02e-11 M. Besides, the “IC50 (read off the curve); NFkB-luciferase reporter (RLU), 293/D9/VEGFR1 cells, VEGF121 constant 40 pM [A]” value in experiment [3] is approximately 2e-11 M. Also, in the experiment with Human VEGF165 (REGN110) [4], the “2.5 nM hVEGF165 Bound (RU)” value was found to be 4.2 RU, the Kd was not above 1.37 pM, the koff was not above 1e-05 s⁻¹ and the kon came to 7.3e+06 M⁻¹ s⁻¹. Moreover, the “t½” value in the experiment with Human VEGF165 (REGN110) [4] was not below 19.2 h.

B3: REGN10102, VEGF trap hIgG2 Fc w/2Cys (Fc fusion)
chain: SDTGRPFVEMYSEIPEIIHMTEGRELVIPCRVTSPNITVTLKKFPLDTLIPDGKRIIWDSRKGFIISNATYKEIGLLTCEATVNGHLYKTNYLTHRQTNTIIDVVLSPSHGIELSVGEKLVLNCTARTELNVGIDFNWEYPSSKHQHKKLVNRDLKTQSGSEMKKFLSTLTIDGVTRSDQGLYTCAASSGLMTKKNSTFVRVHEKVECPPCPAPPVAGPSVFLFPPKPKDTLMISRTPEVTCVVVDVSHEDPEVQFNWYVDGVEVHNAKTKPREEQFNSTFRVVSVLTVVHQDWLNGKEYKCKVSNKGLPAPIEKTISKTKGQPREPQVYTLPPSREEMTKNQVSLTCLVKGFYPSDIAVEWESNGQPENNYKTTPPMLDSDGSFFLYSKLTVDKSRWQQGNVFSCSVMHEALHNHYTQKSLSLSPGK
Take B3: the “IC50, Inhibition of 20 pM VEGF121” value in experiment [2] worked out at 1.43e-11 M. Moreover, in experiment [5], the “IC50 (read off the curve); NFkB-luciferase reporter (RLU), 293/D9/VEGFR1 cells, VEGF121 constant 40 pM [C]” value was approximately 1e-11 M. Further, in the experiment with Human VEGF165 (REGN110) [4], the “2.5 nM hVEGF165 Bound (RU)” value came out at 6.6 RU, binding was put at a Kd of 2.6 pM, the koff was determined as 2.77e-05 s⁻¹ and the kon is 1.06e+07 M⁻¹ s⁻¹. In addition, the “t½” value with Human VEGF165 (REGN110) [4] amounted to 6.95 h.

Turning to B4, the “EC50 of activation of HEK293/D9/Flt-IL18Rα/Flt-IL18Rβ (VEGFR1) luciferase reporter cells” value in experiment [6] was approximately 30 pM. For the same molecule, in experiment [7], the “EC50 (read off the curve); NFkB-luciferase reporter (RLU), 293/D9/VEGFR1 cells, VEGF121 titrated alone [A]” value was approximately 100 pM.
